We go through 33 molecules from patent US20130243795A1 (Janssen / Centocor, published 2013).

Numbering of substitutions follows the chain as printed.

The target in test [1] is T1, Human CD27, full length on the cell surface (human, UniProt P26842 21-260). The test is described as follows: cell-based or functional assay.
Test [2] deals with T2, Human CD27 ECD truncated (ECD 1-121, cleavage site, His6) (human).
T2 construct: also called human CD27 ECD with His Tag; CD27-His
T2 chain: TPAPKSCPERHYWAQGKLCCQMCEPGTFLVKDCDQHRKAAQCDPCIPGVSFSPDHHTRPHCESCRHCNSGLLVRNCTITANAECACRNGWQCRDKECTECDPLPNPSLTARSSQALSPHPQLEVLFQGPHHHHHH
The test is described as follows: ELISA signal for binding to CD27, initial small culture supernatants.

Test [3] concerns the target T3, Human CD27 ECD, monomeric soluble (construct limits not stated) (human, UniProt P26842 20-191).
T3 construct: extracellular domain; target of the Biacore assays; also called monomeric soluble CD27; CD27-His
The test can be described thus: Biacore SPR, purified mAb, CD27 ECD.

Test [4] concerns the target T4, Human CD27 ECD (ECD 1-173, His6) (human, UniProt P26842 21-193, biotinylated on amine residues (NHS-ester) where used biotinylated).
T4 construct: also called biotinylated human CD27 ECD
The test can be described thus: single point Fab ELISA.

The target in test [5] is T3, Human CD27 ECD, monomeric soluble …. The test can be described thus: Biacore SPR, purified mAb.
For test [6], the target named is T1, Human CD27, full length on the cell …. The test can be described thus: cell-based or functional assay. This is another data set of the same source.
The target in test [7] is T4, Human CD27 ECD (ECD 1-173, His6). The test is described as follows: Fab ELISA; Fab captured by anti-Fd, biotinylated CD27 ECD at 0.2 nM.

T1 sequence (P26842 21-260 H233R): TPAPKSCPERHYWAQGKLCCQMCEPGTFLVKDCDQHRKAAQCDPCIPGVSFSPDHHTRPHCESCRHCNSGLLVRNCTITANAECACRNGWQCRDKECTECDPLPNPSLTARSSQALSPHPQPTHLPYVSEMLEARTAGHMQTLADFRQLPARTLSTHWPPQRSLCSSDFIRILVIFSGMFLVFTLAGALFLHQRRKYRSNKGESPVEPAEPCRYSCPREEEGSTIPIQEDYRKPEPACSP
T3 sequence (P26842 20-191): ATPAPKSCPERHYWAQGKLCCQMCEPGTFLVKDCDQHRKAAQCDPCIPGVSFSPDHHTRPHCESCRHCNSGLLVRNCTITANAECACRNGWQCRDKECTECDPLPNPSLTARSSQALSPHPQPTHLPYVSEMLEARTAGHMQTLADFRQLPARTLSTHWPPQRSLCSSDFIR

B1: M489 (antibody, IgG1, V domains shown)
VH: QVQLVESGGGLVKPGGSLRLSCAASGFTFSSYGMSWIRQAPGKGLEWVSYIDEGGGQTIYPDSVKGRFTISRDNAKNSLYLQMNSLRAEDTAVYYCARHRGNPFDYWGQGTLVTVSS
VL: DIQMTQSPSSLSASVGDRVTITCRASKSVSLDRWSFMHWYQQKPGKAPKLLIYLASNLESGVPSRFSGSGSGTDFTFTISSLQPEDIATYYCQHSRELPWTFGQGTKVEIK
notes: also called H227/L250
B1: the “NFkB IC50” value in test [1] stood at 0.041 nM. The ELISA signal in test [2] came to 0.96. Moreover, in test [3], the Kd stood at 0.0241 nM.

B2: M488 (antibody, IgG1, V domains shown)
VH: B1 VH
VL: B1 VL with L31E, D32G, L54V, N57R
notes: also called H227/L249
As to B2, the “NFkB IC50” value in test [1] was 0.023 nM. Besides, the ELISA signal in test [2] was 0.92. Also, the affinity in test [3], expressed as Kd, was 0.0394 nM.

B3: F18 (Fab, V domains shown)
VH: EVQLLESGGGLVQPGGSLRLSCAASGFTFSSYTMSWVRQAPGKGLEWVSAIDHGGGRTYYPDSVKGRFTISRDNSKNTLYLQMNSLRAEDTAVYYCARHRGNPFDYWGQGTLVTVSS
VL: B1 VL with L31T, D32S, R33G, W34Y, F77L, I87F
notes: also called H40/L40
For B3, in test [4], the binding result was “binds”.

B4: M526 (antibody, IgG1, V domains shown)
VH: B1 VH with E53R, Q57V
VL: B1 VL with L31E, D32G, L54V, N57R
notes: also called H222/L249
Regarding B4, the “NFkB IC50” value in test [1] was determined as 0.006 nM. In test [2], this molecule came in with an ELISA signal of 0.69. In addition, the Kd in test [3] came out at 0.171 nM.

B5: M429 (antibody, IgG1, V domains shown)
VH: B1 VH
VL: B1 VL with L31H, D32V, N57K
notes: also called H227/L245
Take B5: in test [1], the “NFkB IC50” value worked out at 0.042 nM. Besides, the ELISA signal in test [2] amounted to 0.86. In test [3], binding was characterised by a dissociation constant (Kd) of 0.0304 nM.

B6: F57 (Fab, V domains shown)
VH: B3 VH with R57Q, Y59L
VL: B1 VL with L31T, D32S, R33G, W34Y, F77L, I87F
notes: also called H79/L40
As to B6, the binding result in test [4] is given as “binds”.

B7: M427 (antibody, IgG1, V domains shown)
VH: B1 VH
VL: B1 VL with L31A, D32W, R33G, W34Y, L54V, N57R
notes: also called H227/L244; C27H227/C27L244
For the molecule B7, the “NFkB IC50” value in test [1] was determined as 0.019 nM. This molecule returned an ELISA signal in test [2] of 0.93. The molecule further had a Kd in test [3] of 0.0417 nM.

B8: F292 (Fab, V domains shown)
VH: B3 VH with A50Y, D52S, H53S, R57N
VL: B1 VL with L31H, D32V, F77L, I87F
notes: also called H39/L173
For the molecule B8, the binding result in test [4] is on record as “binds”.

B9: F299 (Fab, V domains shown)
VH: B3 VH with A50V, R57S, Y59H
VL: B1 VL with L31T, D32S, R33G, W34Y, F77L, I87F
notes: also called H192/L40
Consider B9, for which the binding result in test [4] is listed as “binds”.

B10: F243 (Fab, V domains shown)
VH: B3 VH with A50Y, D52S, H53S, R57N
VL: DIQMTQSPSSLSASVGDRVTITCRASKSVSTSGYSFMHWYQQKPGKAPKLLIYVGSRMAFGVPSRFSGSGSGTDFTLTISSLQPEDFATYYCQHSRELPWTFGQGTKVEIK
notes: also called H39/L124
Consider B10, for which, in test [4], the binding result is reported as “binds”.

B11: F295 (Fab, V domains shown)
VH: B3 VH with A50Y, D52S, H53S, R57N
VL: B10 VL with G55A, S56D, M58V, A59E, F60V
notes: also called H39/L176
Consider B11, for which, in test [4], the binding result is on record as “binds”.

B12: F297 (Fab, V domains shown)
VH: B3 VH with A50T, H53R, R57S, Y59W
VL: B1 VL with L31T, D32S, R33G, W34Y, F77L, I87F
notes: also called H190/L40
As for B12, in test [4], the binding result is given as “binds”.

B13: F279 (Fab, V domains shown)
VH: B3 VH with A50Y, D52S, H53S, R57N
VL: B1 VL with L31Y, D32V, F77L, I87F
notes: also called H39/L160
With B13, the binding result in test [4] is “binds”.

B14: F19 (Fab, V domains shown)
VH: B3 VH with Y59W
VL: B1 VL with L31T, D32S, R33G, W34Y, F77L, I87F
notes: also called H41/L40
For B14, in test [4], the binding result is listed as “binds”.

B15: M501 (antibody, IgG1, V domains shown)
VH: B1 VH with G33S, Y50H, E53A, Q57R, I59W
VL: B1 VL
notes: also called H231/L250
Take B15: the “NFkB IC50” value in test [1] turned out to be 0.004 nM. Also, the ELISA signal in test [2] came out at 0.77. Further, the Kd in test [3] was 0.0742 nM.

B16: M493 (antibody, IgG1, V domains shown)
VH: B1 VH with G33S, E53A, Q57F
VL: B1 VL
notes: also called H228/L250
Take B16: the “NFkB IC50” value in test [1] amounted to 0.014 nM. Further, in test [2], the ELISA signal turned out to be 0.85. The same molecule yielded a Kd in test [3] of 0.145 nM.

B17: M695 (antibody, V domains shown)
VH: B1 VH with G33S, E53A, Q57F
VL: B1 VL with L31E, D32G, L54V, N57R
notes: also called single-gene DNA ID 695
In test [5], B17 gave a dissociation constant Kd of 0.202 nM, a koff of 0.00017 s⁻¹ and an on-rate constant (kon) of 510000 M⁻¹ s⁻¹. For the same molecule, the “NF-kB Assay IC50” value in test [6] turned out to be 0.25 nM.

B18: F298 (Fab, V domains shown)
VH: B3 VH with H53G, R57A
VL: B1 VL with L31T, D32S, R33G, W34Y, F77L, I87F
notes: also called H191/L40
On to B18, for which the binding result in test [4] is reported as “binds”.

B19: M492 (antibody, IgG1, V domains shown)
VH: B1 VH with G33S, E53A, Q57F
VL: B1 VL with L31E, D32G, L54V, N57R
notes: also called H228/L249
For the molecule B19, the “NFkB IC50” value in test [1] came to 0.015 nM. The same molecule returned an ELISA signal in test [2] of 0.77. In test [3], this molecule yielded a Kd of 0.142 nM.

B20: F256 (Fab, V domains shown)
VH: B3 VH with A50Y, D52S, H53S, R57N
VL: B10 VL with M58L, A59D, F60Y
notes: also called H39/L137
B20: the binding result in test [4] is listed as “binds”.

B21: F291 (Fab, V domains shown)
VH: B3 VH with A50Y, D52S, H53S, R57N
VL: B1 VL with L31H, D32I, F77L, I87F
notes: also called H39/L172
On to B21, for which, in test [4], the binding result is reported as “binds”.

B22: F302 (Fab, V domains shown)
VH: B3 VH with A50Y, D52S, H53S, R57N
VL: B1 VL with D32I, F77L, I87F
notes: also called H39/L179
In the case of B22, the binding result in test [4] is recorded as “binds”.

B23: M69-derived Fab with VH H240 (Fab, V domains shown)
VH: EVQLVQSGAEVKKPGESLKISCKGSGYAFSSSWMNWVRQMPGKGLEWMGRIYARDGDTNYSPSFQGQVTISADKSISTAYLQWSSLKASDTAMYYCARSDYYGDYGFAYWGQGTLVTVSS
VL: DIVMTQSPDSLAVSLGERATINCKASQSVDYAGDSYMNWYQQKPGQPPKLLIYAASNLESGVPDRFSGSGSGTDFTLTISSLQAEDVAVYYCQQSNEDPYTFGQGTKLEIK
notes: clone of library C27H28L2; pairing with parent L35 inferred
B23: the “percent binding of the parent” value in test [7] is ≥ 100%.

B24: M69-derived Fab with VH H241 (Fab, V domains shown)
VH: B23 VH with A53G
VL: B23 VL
notes: as for B23
On to B24, for which the “percent binding of the parent” value in test [7] was ≥ 100%.

B25: M69-derived Fab with VL L260 (Fab, V domains shown)
VH: B23 VH with A53P, R54G
VL: B23 VL with Y31W, D34H, Y36W, A54T
notes: clone of library C27L35L2; pairing with parent H28 inferred
For the molecule B25, in test [7], the “percent binding of the parent” value is ≥ 100%.

B26: M69-derived Fab with VL L257 (Fab, V domains shown)
VH: B23 VH with A53P, R54G
VL: B23 VL with Y36W, A54T, Q83L
notes: as for B25
Take B26: the “percent binding of the parent” value in test [7] is ≥ 100%.

B27: M69-derived Fab with VL L261 (Fab, V domains shown)
VH: B23 VH with A53P, R54G
VL: B23 VL with D34S, Y36F, A54E
notes: as for B25
Consider B27, for which the “percent binding of the parent” value in test [7] is ≥ 100%.

B28: M69-derived Fab with VH H242 (Fab, V domains shown)
VH: B23 VH with R54N
VL: B23 VL
notes: as for B23
Regarding B28, the “percent binding of the parent” value in test [7] is ≥ 100%.

B29: M69-derived Fab with VH H243 (Fab, V domains shown)
VH: B23 VH with A53G, R54G
VL: B23 VL
notes: as for B23
For the molecule B29, in test [7], the “percent binding of the parent” value was ≥ 100%.

B30: M69-derived Fab with VL L256 (Fab, V domains shown)
VH: B23 VH with A53P, R54G
VL: B23 VL with Y36W, A54V
notes: as for B25
Take B30: in test [7], the “percent binding of the parent” value is ≥ 100%.

B31: M69-derived Fab with VH H245 (Fab, V domains shown)
VH: B23 VH with G8V, A53S
VL: B23 VL
notes: as for B23
In the case of B31, the “percent binding of the parent” value in test [7] was ≥ 100%.

B32: M69-derived Fab with VL L255 (Fab, V domains shown)
VH: B23 VH with A53P, R54G
VL: B23 VL with Y36F
notes: clone recovered from the CDR-L1 libraries of L35; pairing with the parent H28 heavy chain inferred
Turning to B32, the “percent binding of the parent” value in test [7] is ≥ 100%.

B33: M69-derived Fab with VH H244 (Fab, V domains shown)
VH: B23 VH with A53S, R54G
VL: B23 VL
notes: as for B23
As to B33, the “percent binding of the parent” value in test [7] is ≥ 100%.
